A short description of the data set: yeast display, Sf9 membrane polyspecificity reagent, FACS + sequencing; frameworks hold sequencing errors. Put shortly: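 Genes from sorted yeast were amplified by colony PCR, read by MiSeq 2 × 250 sequencing and filtered on CDR length. These cells carried a synthetic nanobody library in Saccharomyces cerevisiae BJ5465 and were sorted by FACS into low and high (top ~1%) gates on anti-HA and streptavidin fluorescence. Polyreactivity is labelled according to the gate of origin.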
As for “QVQLVESGGGLVQAGGSLRLSCAASGSIFRNNAMGWYRQAPGKERELVAVISRRSGNTYYADSVKGRFTISRDNAKNTVYLQMNSLKPEDTAVYYCAADYSKSSIRGDYWGQGTQVTVSS”, the “polyreactivity (PSR sort gate)” value is given as “low polyreactivity”.

For the sequence “QVQLVESGGGLVQAGGSLRLSCAASGSIFNYYALGWYRQAPGKEREFVADISGSGSSTYYADSVKGRFTISRDNAQNTVYLQMNSLKPEDTAVYYCNAEYYWGVGYYPYSDYGYWGQGTQVTVSS”, the “polyreactivity (PSR sort gate)” value was “low polyreactivity”.

Take “QVQLVESGGGLVQAGGSLRLSCAASGSIFLKYAMGWYRQAPGKERELVAAISSRGGSTYYADSVKGRFTISRDNAKNTVYLQMNSLKPEDTAVYYCAKVRQTYFGWYSTTRDYWGQGTQVTVSS”: the “polyreactivity (PSR sort gate)” value is “high polyreactivity”.

Take “QVQLVESGGGLVQAGGSLRLSCAASGYTFGFYAMGWYRQAPGKERELVAAISRSGGRTYYADSVKGRFTISRDNAKNTVYLQMNSLKPEDTAVYYCAAYQYGMDYWGQGTQVTVSS”: the “polyreactivity (PSR sort gate)” value is on record as “high polyreactivity”.

For the sequence “QVQLVESGGGLVQAGGSLRLSCAASGSIFYHNTMGWYIQAPGKERELITYYADSVKGRFTISRDNAKNTVYLQMNSLKPEDTAVYYCAASPVSRTGPGDYDFWGQGTQVTVSS”, the “polyreactivity (PSR sort gate)” value was “low polyreactivity”.

Turning to “QVQLVESGGGLVQAGGSLRLSCAASGSIFPSYSMGWYRQAPGKERELVAVISVSGGRTYYADSVKGRFTISRDNAKNTVYLQMKSLKPEDTAVYYCAKDRPQEYDYWGQGTQVTVSS”, the “polyreactivity (PSR sort gate)” value is listed as “low polyreactivity”.

Take “QVQLVESGGGLVQAGGSLRLSCAASGSIFGDYAMGWYRQAPGKERELVAAITSSGGITYYADSVKGRFTISLDNAKNTVYLQMKSLNPEDTAVYYCAAYGYGSNYRYTGYYYWGQGTQVTVSS”: the “polyreactivity (PSR sort gate)” value is on record as “low polyreactivity”.

In the case of “QVQLVESGGCLVQAGCSRRLSCAASVRIFARNTMGWSRQAPGKERELVAAISWGGGRTYYADSVKGRFTISRDNAKNTVYLQMNSLKPEDTAVYYCAAETLQIPRGEYWGQGTQVTVSS”, the “polyreactivity (PSR sort gate)” value was “low polyreactivity”.

Turning to “QVQLVESGGGLVQAGGSLRLSCAASGFIFESTAMGWYRQAPGKERELVAGISNGDSTDYADSVKGRFTISRDNAKNTCYLQMNSLNPEDTAVYYCNAELWYSPYSQTTVRYDYWGQVTQVTVSS”, the “polyreactivity (PSR sort gate)” value is “low polyreactivity”.

As to “QDQLVESGGGLLQAGGILRLRCAASGSILNYYAMGWYIQAPGKERELVAAISSSDGRTYYAYSEKGRFTISRDNAKNTVYLQMNSLKPEDSAVYYCAAEGTYSYSSWYEYWGQGTQVTLSS”, the “polyreactivity (PSR sort gate)” value is reported as “high polyreactivity”.

For “QVQLVESGGGLVQAGGSLRLSCAASGSTFKSYVMGWYRQAPGKERELVAAISSGDSTYYADSVKGRFTISRDNAKNTVYLQMNSLKPEDTAVYYCAADPGYTVEPWEDDDWGQGTQVTVSS”, the “polyreactivity (PSR sort gate)” value is on record as “low polyreactivity”.

Consider “QVQLVESGGGLVQAGGSLRLSCAASGSIFLIYAMGWYRQGPGKERELVAGINWSGSRTYYADSVKGRFTISRDNAKNTVYLQMNSLKPEDTAVYDCAARVRRPLYSAYDSWGQGTQVTVSS”, for which the “polyreactivity (PSR sort gate)” value is reported as “low polyreactivity”.

Turning to “QVQLVESGGGLVQAGGSLRLSCAASGSTFTFNAMGWSRQAPGKDRELVAAIRWSTGGTYYADSVKGRFTISRDNAKNTVYLQMNSLKPEDTAVYNCAAQFVPYFYFSKYDYWGQGTQVTVSS”, the “polyreactivity (PSR sort gate)” value is on record as “low polyreactivity”.

For “QVQLVESGGGLVQAGGSHRLSCAASGSIFYAYAMGWYRQAPGKERELVAAITGSGGRTYYADSVKGRFTISRDNAKNTVYLQMNSLKPEDTAVYYCNAYYYRGSSYGYWGQGTQVTVSS”, the “polyreactivity (PSR sort gate)” value is given as “high polyreactivity”.

Turning to “QVQLVESGGGLVQAGGSLRLSCAASGSTFYIYAMGWYRQAPGKERELVAAITWSGGSTYYADSVKGRFTISRDNAKNTVYLQMNSLKPEDTAVYYCAAQVWYSKSPTVDVYFDYDYWGQGTQVTVSS”, the “polyreactivity (PSR sort gate)” value is listed as “low polyreactivity”.

On to “QVQLVESVGGLVQAGGRLRLSCAASGSTFRYYAMGRYRPATGKESELVAAISRSGGSTYYADSVKGRFTISRDNAKNTVYLQMNSLKTEDTAVYYSNGRYYTFYSIYDYWGQGTQVTVSS”, for which the “polyreactivity (PSR sort gate)” value is “high polyreactivity”.

Source of the values: the nanobody polyreactivity screen of Harvey et al. (2022).
